Results as given in the supplement of paper PMC9732359.
± gives the uncertainty stated by the source.

Assay: protein stability index of a GFP-peptide fusion (yeast GPS) (PSI 1-4); higher = more stable; sorted into four equal gates, so the index is relative within each strain
Settings: pdr5∆
Summary of the method: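 Each library plasmid carries Cherry plus GFP with a tiled 17-residue yeast protein peptide fused downstream, and the pooled library was carried in yeast. Mid-log cultures in leucine-free medium were sorted into four equal gates by GFP/Cherry ratio. Reads from Illumina sequencing of PCR-amplified plasmids from each gate were assigned to strains by barcodes. Per peptide, the protein stability index was computed as the summed products of gate read frequency and gate number.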
RPSITEAMMLKEEGLQQ [MED1] showed a protein stability index of 3.65 ± 0.2. In the case of RQFEVKQLQLAMHNSKA [POP1], the protein stability index is reported as 2.17 ± 0.059. With RQLANLIPFIVKQVLLS [NUT1] the protein stability index was 1.55 ± 0.028. For RQNRNQEIFDANVQRLK [RPL13A], the protein stability index was 3.19 ± 0.085.

Same assay, conditions: san1∆
Work on QRRGPLVVYAEDNGIVK [RPL4A] yielded a protein stability index of 2.46 ± 0.093. Sequence QRRTNNSGVGSAKGPEI [MED6] has a protein stability index of 3.23 ± 0.19. QRRYVIKEKVQFNATIN [ITC1] showed a protein stability index of 1.63 ± 0.069. In the case of QSAIRPAGQATQKRTHV [RPL4A], the protein stability index is reported as 2.72 ± 0.085. In the case of QSALSQIIRLFYSKNRL [ISW2], the protein stability index is reported as 1.87 ± 0.095. Sequence QSDLEIITQYVFESLEI [ARP9] has a protein stability index of 2.52 ± 0.082. QSDSAKVEIKKVNSRDD [PRP28] gave a protein stability index of 2.73 ± 0.088. Work on QSLLSLYFEIIHGVLKN [FAS2] yielded a protein stability index of 2.14 ± 0.17. In the case of QSLNEMVKLIVMLCTLT [YJL039C/NUP192], the protein stability index is reported as 2.81 ± 0.11. QSRLFINELVLENFKSY [SMC4] showed a protein stability index of 1.94 ± 0.078. With QSSAIGALQESVEAYLV [HHT1] the protein stability index was 2.39 ± 0.11. Work on QSTNLNRSAKNSKNDSA [YCS4] yielded a protein stability index of 2.67 ± 0.064. Work on QSTPVLLNHGERAELET [RPN1] yielded a protein stability index of 2.02 ± 0.16. QTIMKMGPLSNIAQMIP [SRP54] showed a protein stability index of 2.58 ± 0.08. In the case of QTKDSVKEIVLPLFYDL [IRR1], the protein stability index is reported as 2.6 ± 0.05. With QTKRWPTMYTRLCICSG [SIN4] the protein stability index was 1.51 ± 0.078. Work on QTLKGVGVENNGQYAAF [RPC37] yielded a protein stability index of 2.9 ± 0.18. For QTLSEKEYQCSAVIIDE [YIL149C/MLP2], the protein stability index was 3.15 ± 0.082. Work on QVASIIESFVELGVSIY [NUT2] yielded a protein stability index of 2.2 ± 0.13. With QVATKYASLKLPNQIPG [YMR129W/POM152] the protein stability index was 1.67 ± 0.052. Work on QVKKPRKQRVKKKTKKE [SWI1] yielded a protein stability index of 3.5 ± 0.12. Sequence QVPDSLDDQIFVCEKSI [RPN6] has a protein stability index of 2.95 ± 0.084. With QVRRDIPSAAFNFFEPI [YMR129W/POM152] the protein stability index was 1.96 ± 0.049. For QVSINSNKILVYESEME [YIL149C/MLP2], the protein stability index was 1.71 ± 0.21. Work on QVVTTVASQSPHATATE [SNF6] yielded a protein stability index of 2.6 ± 0.096. Sequence QVVVDAITNTGPREDTT [RPS5] has a protein stability index of 2.82 ± 0.064. Work on QWLNNALKRSYGIFGEG [POP8] yielded a protein stability index of 3.08 ± 0.07. QYATVSKTHKTVSRAYG [RPL34A] showed a protein stability index of 2.41 ± 0.065. Work on RAASIRARVKAFPKDDR [RPL3] yielded a protein stability index of 1.27 ± 0.078. With RADTDLAMNDDDFLSKK [SNF2] the protein stability index was 3.22 ± 0.076. Sequence RAGVTHVLSRLSYISAL [RET1] has a protein stability index of 1.22 ± 0.11. RAINKVLCTRLRLSNFF [SIR2] gave a protein stability index of 1.18 ± 0.12. RAQVLSLGDGTNYYLTT [CSL4] gave a protein stability index of 2.79 ± 0.048. For RARKDRMRVSVLEKYEV [SSN3], the protein stability index was 2.19 ± 0.13. In the case of RATTYEKLTMVFQDNVY [SIN4], the protein stability index is reported as 2.21 ± 0.11. Sequence RDDALVVETITSLLNKV [RRP42] has a protein stability index of 3.1 ± 0.054. Work on RDEMSKAELPQWYTLQS [MED8] yielded a protein stability index of 2.87 ± 0.038. For RDVMCTDGVIGSRTTTN [RPO31], the protein stability index was 3.16 ± 0.084. RDYQRINKNSKIALREY [POP4] gave a protein stability index of 2.69 ± 0.076. With REAYIENFAKGEHISAI [SWP82] the protein stability index was 2.99 ± 0.061. In the case of REIDALKKQLHVSHEAM [YIL149C/MLP2], the protein stability index is reported as 2.91 ± 0.048. REISNFSKGDADVLVDR [SRP72] showed a protein stability index of 3.03 ± 0.097. Work on REKALNEEAEARRLKNR [RPL19A] yielded a protein stability index of 3.09 ± 0.095. With RELILAKKQNYKLTNDE [YCG1] the protein stability index was 3.23 ± 0.05. With RELREVIELPLKNPEIF [RPT4] the protein stability index was 3.08 ± 0.18. In the case of REMRRKVYAQLLESYKT [RPN7], the protein stability index is reported as 2.32 ± 0.18. With RETNDDIWRVAGKFELL [SNF2] the protein stability index was 2.43 ± 0.076. Work on RFELHGDMTNSDAQSNL [REC8] yielded a protein stability index of 2.9 ± 0.17. Work on RFRKLTSQEINDRLEAL [PRE8] yielded a protein stability index of 2.52 ± 0.24. RFTPGSFTNYITRSFKE [RPS0A] gave a protein stability index of 2.93 ± 0.1. Work on RGAHVEKTMVKKNLGRL [PRP8] yielded a protein stability index of 3.14 ± 0.18. RGPYLVIVPLSTLSNWS [SNF2] showed a protein stability index of 2.17 ± 0.065. RGRSVMKESVVEINSSE [ESC2] gave a protein stability index of 3.09 ± 0.17. RGTLTKNLKHIDVTFTK [RPL9A] gave a protein stability index of 3 ± 0.077. RGYWGTNLGQPHSLATK [RPS2] gave a protein stability index of 3.04 ± 0.1. For RHGFNRSNTGALMRCSF [RPO21], the protein stability index was 2.85 ± 0.061. Work on RIENPEKYAAAAPAATS [RPP0] yielded a protein stability index of 2.71 ± 0.094. With RILKLGTQLATLKNRGL [YGR119C/NUP57] the protein stability index was 2.65 ± 0.081. For RIRKLTGQNFLTSNISS [REC8], the protein stability index was 1.57 ± 0.093. With RKKTPAGDWKYDRQLSS [FAS2] the protein stability index was 1.59 ± 0.19. With RKNDNANDHDESIDVDM [SMC3] the protein stability index was 3.32 ± 0.11. RKNRYVILQSDLEEAYA [RPT3] showed a protein stability index of 2.1 ± 0.17. For RKSAPVDSWDREFLKVD [SKP1], the protein stability index was 3.04 ± 0.1. Work on RKTWKRQNTLSLWRYRK [RPL15A] yielded a protein stability index of 3.3 ± 0.052. In the case of RKVEKEKNEKEREIKRR [UBP6], the protein stability index is reported as 3.09 ± 0.053. RKWMEEKADYERELISN [YIL149C/MLP2] gave a protein stability index of 3.11 ± 0.04. With RKYDLFQNLELETEQLS [SMC2] the protein stability index was 1.99 ± 0.17. Sequence RKYSFNYSSLPSPYKTT [YAR002W/NUP60] has a protein stability index of 2.71 ± 0.058. With RLAKSTENEIPNLIEKM [BRR2] the protein stability index was 1.75 ± 0.087. RLDNLQDIKKAKRVENF [DSN1] showed a protein stability index of 2.56 ± 0.074. RLIVDPNIADYITAKNN [PRP8] gave a protein stability index of 2.36 ± 0.26. In the case of RLKGDIFCVGSGQTFAY [PRE2], the protein stability index is reported as 2.25 ± 0.019. Work on RLKVFEGIPPPYDKKKR [RPL16A] yielded a protein stability index of 3.05 ± 0.065. For RLKYALNGREVKAILMQ [RPS4A], the protein stability index was 1.62 ± 0.18. With RLNENKKIGCYMFANLE [CSN12] the protein stability index was 3.25 ± 0.084. Sequence RMIPPRMVRSIMWQLLD [SSN3] has a protein stability index of 1.56 ± 0.11. Work on RMKSITSTSQKIPSASI [SNF5] yielded a protein stability index of 3.17 ± 0.045. Work on RMPMDFKGVIVKIVDKD [PRE1] yielded a protein stability index of 3.19 ± 0.22. RMSSEEVNSLLLQVNKT [GRR1] showed a protein stability index of 2.96 ± 0.19. With RNAALRAKAEAAEFRYK [SCL1] the protein stability index was 2.93 ± 0.056. In the case of RNAQAQREAAAEYAQLL [RPS6A], the protein stability index is reported as 2.85 ± 0.15. With RNDKTLELMDSKKTGQF [POP1] the protein stability index was 3.18 ± 0.064. Sequence RNEEILRDIGECENEIK [SMC2] has a protein stability index of 2.49 ± 0.12. Sequence RNFKKANLVNKESDLLE [BRN1] has a protein stability index of 1.64 ± 0.11. RNFLETVELQVGLKNYD [RPL1A] gave a protein stability index of 3.1 ± 0.091. Sequence RNFSLAIIDKNTGLTFK [PRE4] has a protein stability index of 3.14 ± 0.043. Work on RNHKHALHGTAKALAAA [RPL29] yielded a protein stability index of 2.523 ± 0.018. RNISFSDNNSRIMSRNF [SWI1] showed a protein stability index of 2.9 ± 0.068. RNKRAVQLPILKIIYTG [YJL039C/NUP192] gave a protein stability index of 1.97 ± 0.069. For RNNLPAKTFGASVRIFL [RPL33A], the protein stability index was 2.84 ± 0.053. For RNPDIYTREFVEAIRRS [NUT2], the protein stability index was 2.84 ± 0.15. RNVNWIERLTKRQFNNS [ITC1] gave a protein stability index of 3.05 ± 0.13. Sequence RNVTIQLENADTGTLDT [RPN2] has a protein stability index of 3.13 ± 0.069. RPKPVSPPCYIIDHIPG [SNF5] gave a protein stability index of 2.28 ± 0.12. With RPSITEAMMLKEEGLQQ [MED1] the protein stability index was 3.16 ± 0.061. In the case of RQFEVKQLQLAMHNSKA [POP1], the protein stability index is reported as 1.77 ± 0.088. In the case of RQLANLIPFIVKQVLLS [NUT1], the protein stability index is reported as 1.59 ± 0.051. RQNRNQEIFDANVQRLK [RPL13A] gave a protein stability index of 3.19 ± 0.055.
